Consider two proteins from article PMC11986948, “The carboxylesterase AtCXE12 converts volatile (Z)-3-hexenyl acetate to (Z)-3-hexenol in Arabidopsis leaves” (Plant Physiology, 2025).

What all share (experiment): GC-MS of (Z)-3-hexenol formed, Michaelis-Menten fit
What all share (format): biochemical, Arabidopsis thaliana
Holding throughout (settings): 50 mM Tris-HCl pH 7.5, 30 °C, 10 min, 0.5 µM enzyme

Substrate in data set [1]: CC/C=C\CCOC(=O)CCC
From the text: (§1) GC-MS of (Z)-3-hexenol formed, Michaelis-Menten fit on AtCXE12

Substrate in data set [2]: CC/C=C\CCOC(=O)CC
Text: as §1

Substrate in data set [3]: CC/C=C\CCOC(C)=O
Text: as §1

Substrate in data set [4]: CC/C=C\CCOC(=O)CCC
An excerpt: (§2) GC-MS of (Z)-3-hexenol formed, Michaelis-Menten fit on AtCXE5
This is another data set of the same source.

Substrate in data set [5]: CC/C=C\CCOC(=O)CC
Text: as §2
This is another data set of the same source.

Substrate in data set [6]: CC/C=C\CCOC(C)=O
Text: as §2
The source holds these as a separate data set.

B1: AtCXE12 (Arabidopsis thaliana) (protein)
chain: MDSEIAVDCSPLLKIYKSGRIERLMGEATVPPSSEPQNGVVSKDVVYSADNNLSVRIYLPEKAAAETDSKLPLLVYFHGGGFIIETAFSPTYHTFLTTSVSASNCVAVSVDYRRAPEHPISVPFDDSWTALKWVFTHITGSGQEDWLNKHADFSRVFLSGDSAGANIVHHMAMRAAKEKLSPGLNDTGISGIILLHPYFWSKTPIDEKDTKDETLRMKIEAFWMMASPNSKDGTDDPLLNVVQSESVDLSGLGCGKVLVMVAEKDALVRQGWGYAAKLEKSGWKGEVEVVESEGEDHVFHLLKPECDNAIEVMHKFSGFIKGGN
Broadly, the Km is the substrate concentration at which the rate is half of its maximum. The term kcat denotes the maximal rate divided by the concentration of active sites. In general, kcat/Km refers to the turnover number divided by the Michaelis constant. With B1, in data set [1], the Km is 460 ± 50 µM, the kcat was found to be 0.85 s⁻¹ and the kcat/Km came to 1860 M⁻¹ s⁻¹. Also, in data set [2], the Km amounted to 2260 ± 340 µM, the kcat was determined as 2.25 s⁻¹ and the kcat/Km was determined as 990 M⁻¹ s⁻¹. Moreover, in data set [3], the Km was determined as 5940 ± 840 µM, the kcat turned out to be 3.78 s⁻¹ and the kcat/Km came to 640 M⁻¹ s⁻¹.

B2: AtCXE5 (Arabidopsis thaliana) (protein)
chain: MESEIASEFLPFCRIYKDGRVERLIGTDTIPASLDPTYDVVSKDVIYSPENNLSVRLFLPHKSTKLTAGNKLPLLIYIHGGAWIIESPFSPLYHNYLTEVVKSANCLAVSVQYRRAPEDPVPAAYEDVWSAIQWIFAHSNGSGPVDWINKHADFGKVFLGGDSAGGNISHHMAMKAGKEKKLDLKIKGIAVVHPAFWGTDPVDEYDVQDKETRSGIAEIWEKIASPNSVNGTDDPLFNVNGSGSDFSGLGCDKVLVAVAGKDVFVRQGLAYAAKLEKCEWEGTVEVVEEEGEDHVFHLQNPKSDKALKFLKKFVEFIIG
As to B2, in data set [4], the Km is 240 ± 30 µM, the kcat is 0.16 s⁻¹ and the kcat/Km worked out at 650 M⁻¹ s⁻¹. Moreover, in data set [5], the Km was 1450 ± 190 µM, the kcat was determined as 0.3 s⁻¹ and the kcat/Km was 210 M⁻¹ s⁻¹. For the same protein, in data set [6], the Km turned out to be 8630 ± 1280 µM, the kcat amounted to 3.17 s⁻¹ and the kcat/Km is 380 M⁻¹ s⁻¹.
